In CN108623681A (ZHUHAI TAINUO MAIBO BIOTECHNOLOGY CO LTD; GUANGZHOU …, dated 2018):

Target: 破伤风毒素 (Clostridium tetani, UniProt P04958 2-1315)
Sequence (P04958 2-457 limits assumed, chain 1 of 2): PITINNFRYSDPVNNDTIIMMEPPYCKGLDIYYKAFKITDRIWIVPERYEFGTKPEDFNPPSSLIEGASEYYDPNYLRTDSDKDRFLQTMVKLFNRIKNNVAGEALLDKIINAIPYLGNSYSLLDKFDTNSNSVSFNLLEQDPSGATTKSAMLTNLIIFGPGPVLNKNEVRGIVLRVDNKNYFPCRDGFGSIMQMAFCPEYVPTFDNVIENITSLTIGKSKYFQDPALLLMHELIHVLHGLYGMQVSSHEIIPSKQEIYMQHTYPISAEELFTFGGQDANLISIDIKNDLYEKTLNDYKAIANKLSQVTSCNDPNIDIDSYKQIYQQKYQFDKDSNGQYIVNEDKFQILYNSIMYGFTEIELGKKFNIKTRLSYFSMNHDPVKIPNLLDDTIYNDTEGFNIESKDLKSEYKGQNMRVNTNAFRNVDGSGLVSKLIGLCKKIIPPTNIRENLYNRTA
Sequence (P04958 458-1315 limits assumed, chain 2 of 2): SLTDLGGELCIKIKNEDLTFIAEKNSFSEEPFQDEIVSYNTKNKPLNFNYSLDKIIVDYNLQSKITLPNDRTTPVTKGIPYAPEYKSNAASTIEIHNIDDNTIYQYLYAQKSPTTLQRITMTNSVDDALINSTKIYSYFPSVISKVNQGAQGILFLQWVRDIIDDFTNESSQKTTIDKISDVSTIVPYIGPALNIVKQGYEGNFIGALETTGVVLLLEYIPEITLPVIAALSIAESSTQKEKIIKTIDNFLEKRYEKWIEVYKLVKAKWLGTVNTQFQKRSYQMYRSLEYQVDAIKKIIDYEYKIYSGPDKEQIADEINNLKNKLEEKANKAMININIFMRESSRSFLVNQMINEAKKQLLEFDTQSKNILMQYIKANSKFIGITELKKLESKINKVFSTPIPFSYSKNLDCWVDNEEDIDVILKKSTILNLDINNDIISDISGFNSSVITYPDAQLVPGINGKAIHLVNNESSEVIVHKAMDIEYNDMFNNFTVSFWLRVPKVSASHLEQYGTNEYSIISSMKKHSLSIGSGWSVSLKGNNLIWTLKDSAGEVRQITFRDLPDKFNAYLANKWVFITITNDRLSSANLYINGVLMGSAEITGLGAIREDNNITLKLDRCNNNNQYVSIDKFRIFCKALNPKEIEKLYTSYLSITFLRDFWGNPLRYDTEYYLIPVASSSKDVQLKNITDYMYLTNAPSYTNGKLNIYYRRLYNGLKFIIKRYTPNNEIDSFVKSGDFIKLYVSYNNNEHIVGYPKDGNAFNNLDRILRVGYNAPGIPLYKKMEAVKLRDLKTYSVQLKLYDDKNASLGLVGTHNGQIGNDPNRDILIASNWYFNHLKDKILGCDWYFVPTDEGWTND

B1: 抗体TRN1015 (antibody, V domains shown)
VH: EVQLVESGGGRVKPGGSLRLSCSVSGFGIGIYTMNWVRQAPGKGLEWVSSISGTSQYIYYANSVRGRFTISRDNAENSLYLQLNNLRAEDTALYYCVSGSSLDYWGQGTLVTISS
VL: DIQLTQSPSSLSASVGGRVTITCRASQNIGTNLNWFQQKPGTAPNLLIYGASTLQSGVPSRFSGSGSGTTFTLTIDSLQPEDFATYYCYQNYNSPKTFGQGTKVDLK
For B1, the koff was 9.4e-05 s⁻¹ and the kon was 38800 M⁻¹ s⁻¹.
